Data published in the supplement of paper PMC7125110.
± gives the standard error. For some assays here: Fewer inactive variants are shown than the library holds.

B1: glmS ribozyme (parent)
chain: AUAAAAGCGCCAGAACUACAGAAAUGUAGUUGACGAGGAGGAGGUUUAUCGAAUUUUCGGCGGAUGCCUCCAAA

Assays:
Conditions in all cases: with glucosamine-6-phosphate
glucosamine-6-phosphate [1] = variants of: B1; experiment: kcat; higher = faster cleavage; RNA array
Method in brief: (§1)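 A hybridised Cy3 probe tracked barcoded ribozyme variants, transcribed in situ by E. coli RNA polymerase on sequenced MiSeq chips, at 37 °C. The variants received 40 μM to 10 mM glucosamine-6-phosphate in HEPES/KCl/Mg(OAc)2 buffer. kobs came from decay fits and kcat and KM from weighted Michaelis–Menten fits.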

glucosamine-6-phosphate [2] = variants of: B1; experiment: self-cleavage kobs at 40 uM GlcN6P; higher = faster cleavage; RNA array
Method in brief: as §1

glucosamine-6-phosphate [3] = variants of: B1; experiment: self-cleavage kobs at 160 uM GlcN6P; higher = faster cleavage; RNA array
Method in brief: as §1

glucosamine-6-phosphate [4] = variants of: B1; experiment: self-cleavage kobs at 10000 uM GlcN6P; higher = faster cleavage; RNA array
Method in brief: as §1

glucosamine-6-phosphate [5] = variants of: B1; experiment: KM; higher = weaker cofactor use; RNA array
Method in brief: as §1

glucosamine-6-phosphate [6] = variants of: B1; experiment: self-cleavage kobs at 640 uM GlcN6P; higher = faster cleavage; RNA array
Method in brief: as §1

glucosamine-6-phosphate [7] = variants of: B1; experiment: self-cleavage kobs at 2500 uM GlcN6P; higher = faster cleavage; RNA array
Method in brief: as §1

Row | Variant | kcat (glucosamine-6-phosphate [1]) | self-cleavage kobs at 40 uM GlcN6P (glucosamine-6-phosphate [2]) | self-cleavage kobs at 160 uM GlcN6P (glucosamine-6-phosphate [3]) | self-cleavage kobs at 10000 uM GlcN6P (glucosamine-6-phosphate [4]) | KM (glucosamine-6-phosphate [5]) | self-cleavage kobs at 640 uM GlcN6P (glucosamine-6-phosphate [6]) | self-cleavage kobs at 2500 uM GlcN6P (glucosamine-6-phosphate [7])
1 | C16A G63U | < 1e-05 s⁻¹ | < 1e-05 s⁻¹ | < 1e-05 s⁻¹ | < 1e-05 s⁻¹ | – | – | –
2 | C16U U31G | 0.0126 ± 0.0042 s⁻¹ | 0.000138 ± 2.7e-05 s⁻¹ | 0.00118 ± 0.00045 s⁻¹ | 0.0111 ± 0.0031 s⁻¹ | 3460 ± 1500 µM | 0.00226 ± 0.00062 s⁻¹ | 0.00478 ± 0.00085 s⁻¹
3 | C16U A53U G66A C67U | 0.00153 ± 0.0004 s⁻¹ | 8.2e-05 ± 1.8e-05 s⁻¹ | – | 0.00215 ± 0.00061 s⁻¹ | 755 ± 320 µM | 0.000671 ± 0.00013 s⁻¹ | 0.000968 ± 0.00031 s⁻¹
4 | A15U U65C | 5.03e-05 ± 3.5e-06 s⁻¹ | – | – | 4.61e-05 ± 1.5e-05 s⁻¹ | – | 4.42e-05 ± 1.2e-05 s⁻¹ | 4.8e-05 ± 8.3e-06 s⁻¹
5 | A15U G41U | 0.000143 ± 2.5e-05 s⁻¹ | – | 4.82e-05 ± 1.4e-05 s⁻¹ | 0.000149 ± 1.7e-05 s⁻¹ | – | 0.000255 ± 5.3e-05 s⁻¹ | 0.000115 ± 1.5e-05 s⁻¹
6 | A15U G40U | 0.000328 ± 7.5e-05 s⁻¹ | – | 2.65e-05 ± 1.3e-05 s⁻¹ | 0.000273 ± 2.8e-05 s⁻¹ | – | 0.000117 ± 2.2e-05 s⁻¹ | 0.000447 ± 6.9e-05 s⁻¹
7 | C16A A39C U65G | 5.91e-05 ± 2.8e-05 s⁻¹ | – | – | – | – | – | 8.69e-05 ± 3e-05 s⁻¹
8 | A15U U57G | 1.7e-05 ± 6.8e-06 s⁻¹ | – | – | – | – | – | –
9 | A15U U57C | 8.55e-05 ± 5e-06 s⁻¹ | – | < 1e-05 s⁻¹ | 5.82e-05 ± 8.1e-06 s⁻¹ | 4690 ± 680 µM | – | 2.97e-05 ± 8.8e-06 s⁻¹
10 | A15U U57A | 4.21e-05 ± 3.2e-07 s⁻¹ | – | – | 3.41e-05 ± 5.8e-06 s⁻¹ | 2340 ± 76 µM | – | –
11 | C16G C34U | < 1e-05 s⁻¹ | < 1e-05 s⁻¹ | < 1e-05 s⁻¹ | < 1e-05 s⁻¹ | – | < 1e-05 s⁻¹ | –
12 | C16U G59A | 6.33e-05 ± 4e-06 s⁻¹ | – | – | 5.59e-05 ± 6.3e-06 s⁻¹ | 1180 ± 390 µM | – | 4.86e-05 ± 1.2e-05 s⁻¹
13 | A15U U69C | 0.000652 ± 0.00018 s⁻¹ | 5.12e-05 ± 1.2e-05 s⁻¹ | 8.72e-05 ± 1.3e-05 s⁻¹ | 0.000677 ± 0.00011 s⁻¹ | 1120 ± 510 µM | 0.000203 ± 2.7e-05 s⁻¹ | 0.000443 ± 7.7e-05 s⁻¹
14 | A15U A42U | 4.62e-05 ± 4.1e-06 s⁻¹ | – | – | 3.96e-05 ± 1e-05 s⁻¹ | 1830 ± 680 µM | – | –
15 | A15U A42G | 0.00684 ± 0.0019 s⁻¹ | 0.000222 ± 3.2e-05 s⁻¹ | 0.000542 ± 0.00018 s⁻¹ | 0.00687 ± 0.0013 s⁻¹ | 1500 ± 570 µM | 0.00165 ± 0.00033 s⁻¹ | 0.0039 ± 0.0016 s⁻¹
16 | C16U C58A C67G | 0.000119 ± 2.4e-06 s⁻¹ | – | 4.51e-05 ± 1.9e-05 s⁻¹ | 0.000118 ± 2.5e-05 s⁻¹ | 283 ± 23 µM | 8.08e-05 ± 1.6e-05 s⁻¹ | 0.000106 ± 2e-05 s⁻¹
